Assay: soluble on expression in E. coli; label from the status in PepcDB or PDB records

Soluble on expression in E. coli, not soluble:
MGSDKIHHHHHHMKLVTISGPPSSGKTAVLAGVIRAMMASGLKVGALKYDCLATNDDDVFRAIGVPVQTGLSGNLCPDHYFVSNIEECLDWGIREGFDFLLSESAGLCNRCAPHIKGVLAVCVIDNLMGATTPKKIGPMLKYADIVVITKGDIVSQAEREVFAFQVRRANPRAKIMHVNGITGQGAGELASQFLLAPETTCLDGSRLRFSMPAALCSYCLGETRIGMEFQLGNVKKIKMSEEPAR, MGSDKIHHHHHHMKNIFVFGADEFNLSLMRSLDSAHEYCFHELYQYSEVKTGKEFPVETLYEGALARLNSYPDSVDAIVGYLDFPVSTMLPLLCQSLGLPSPSFEAVLKCEHKYWSRLEQRRVIPEYIPNFCSVDPFKDDYRQQITLDYPFWLKPVKAVLSHLGFMVRDDSELEMAIIEIRKKIYCFAKPFNYLLQFADLPDEIAAVDGYHCIAEGIISHGQQCTLEGYVFDGKLCVYGTVDSIREGEHGSSFSRYQYPSSIPQPIQDKMIAVTERFLTAIDFDNGPFNIEYYWDKDSDHIWLLEINTRISKSHSPLFRNVDGKSHHQIMLDLALGKQPIFPHRKGLYRYSAKFMWRTHADAQVNRVPTEQEIQAITQRIGGTDIQLHVREGMRLSDLNYQDSYSYEIATVFIGGDSEQELLQKYHDVQQALPLELVPLL, MGSDKIHHHHHHMKNLQVVEKEFSSLPIIDISALVSGKGNLYSAASQIRQACRESGFFYIIGHGVDENLQQRLEELSRQFFAQDLETKLKIRMALAGIAWRGYFPVGGELTSGKPDLKEGIYFGTELPDEHPLVQAGTPMHGANLFPANMPQFGETVLEYIEAMTKLGHTLMTGIAMSLGLEESYFADRYTSDPLVLFRIFNYPPNLSPSDGNPIWGVGEHTDYGVLTILKQDDSGGLQVKSKSGWVAAPPVPGSFVCNIGDMLDKMTGGFYRSTPHRVQNQSQNHRLSFPFFFDPNFDVEVKPIELDNYSSE, MGSDKIHHHHHHMKNVLILSSSPRRGGNSDTLCDEFMQGAIESGHRVEKVFLRDKTIHPCTGCGVCSQYKKPCPQKDDAAEIIGKMLAADVIVMATPVYFYAMSAQMKTLIDRCCGPYTEMKNKEFYFIATAAEEDNGIMDRIVANFMGFLDCLENPTVKGTLFCGGVWHVGEIEGNPTLRQAYEQGKRV, MGSDKIHHHHHHMKPVVVMTQTNDMQSDLVSIIHKPFIDIKPLNFDIHLLNQRYDWLIFSSKNAVKFFYKYLKGINVDNIAVIGSKTAQYCESLGIRVDFMPNDFSQEGFLKSFNQTNQKILLPSSELARPLLLAALSKDNEVVKIDLYTSVPNKQNIQDVKEMIEHQQIDALTFSSSSAVRYYFNEGFVPKFKSYFAIGEQTARTIKTYQQPVTIAEIQTLESLIEKILESRG, MGSDKIHHHHHHMKQIYLLLLCGVLFACKKKESLPEVQKIGHSGMGLYGDYPINSFESLMQAFLLGADGVEIDVQMTRDGILVLLHDELLDNQTNGTGAVQERTWDEISNLAYDNIALGRYNIIRLDFLLENCGPHIDKLFYFDIKPNAYSTEHLYTLNRNLSTLITKFNLEDNSVLMYQNNAQFLHMLSLRTDLTIYSYSDFNTAKKNILQYKLNGWVASINDIDESKVAQMHEIGARVVGFSTFNKNDHLNLIHKGVDIIQTDNLKNLINLYQ, MGSDKIHHHHHHMKQTILDVDLLAFEQGTRFQQAAVVDGLMRSLGTGFVVTTSDLPSALLDEAYGMLNRFFALEATTKRQFNVPEAFGQTGYTDTLVETAAGEKLPDWKEMLNWAFPLPDNHPLRQRFPTLYPEQLLPEVAVPGITRVLQTFHQTIAELQCRVLRIIATGLGCHNDFFTDLVQDAPTLTRAIRYPPMSEAPAAGHMWAAAHGDINLITALPRATAPGLQVYIDGSWVDAIAPEGQVIVNSGLMLERISNGLIPTGWHRVLAPSQANLERLSVVQFCHPKPSTLLTPLSNCVNESHPQRFAGVMAADALEEVLYKIKLMA, MGSDKIHHHHHHMKRACVIGAGFGGLALAIRLQSGGVQTTLIEARDKPGGRAYFWEKDGFTFDGGPTVITDPACLEELWALKGHRMADDVELMPVMPFYRLNWADGTNFDYSNDDASLRAEIAKLEPADVAGYDDFLRYSAGVFEEGYVKLGAVPFLDFASMIKAAPALARYQAWRSVYSMVSSFVRNEKLREAFSFHTLLVGGNPMTTSAIYALIHKLEKDGGVWWAKGGTNRLIEGMVTHFRRIGGEVRIGDPVTRVETLGTRVTGVETRSGWSGKFDAVASNADVMHSYRDLLSDNSHAKRRAKSLGKKRFSPSLFVVHFGIEGTWPGIPHHMILFGPRYKGLLDDIYTHGVLPQDFSIYLHHPTVTDPSVAPEGMSTFYALVPVANMGKLPVNWDEVGPILEKRILDEVGRRLIPDIHTRIVTKFHYAPSDFSTDLSAHLGSAFSLEPLLTQSAWFRAHNRDDAISNFYLVGAGTHPGAGIPGVVGSAKATARLMLEDLS, MGSDKIHHHHHHMKRAVGDLIEETMDIVLANPRGFCAGVDRAIIIVEQALEKFGAPIYVRHEVVHNKFVVDDLKKKGAIFVEELDEVPAGNTVIFSAHGVSKDVRAEAEARGLQVFDATCPLVTKVHLEVAKMRASGKEIIMIGHKGHPEVEGTMGQAEGGMYLVESPEDVAMLEVKDPSQLAYVTQTTLSIDDAAAIVSALKAKFPEITPPRSDSICYATQNRQDAVKVMARDCDLVIVVGSPNSSNSNRLREVAQNQGVESYMVDNASFLDPAWIVGKKRIGVSAGASAPEVLVQEVINKLRALGAADVQELNGVVENVVFKIPRNLAEA, MGSDKIHHHHHHMKRQRLAIIDIGSNSIRLVINTINEHGHYQELYNFKTVARLSNHLDAQGNLTKEGTSILLTTLQKFRTLTEDHHCDRAIVVATAAMRKANNRKELLKLAEQETGFSIKLLSEYEEAYFGYLAIVNSTSIQDGITIDIGGGSTEITRFSNRKLLHYHSFPFGAITLYRDFFHSTDPSEEELASLQTFLESAFATLPWLQDAKDLPVIGIGGTARNLSLIHQRQTDYPLAGLHQYSFPAEELHSVTQMLQRLTSSEREGLDGLSKDRVDVIIPGTQAISSLVKTIGSSQFIMSRKGLRDGLFYSEILEQLNLECFPNVVEESFYQLYHQYEINLEHVKQVAKLATKLYEQLAPFYNGKLEHQQNLTLIHRAARVLYLGEHINPEASSQHTFYLLTNMSIDGLNHEERLALACVSSFKSKAQLLHMASPFMPLISKKQLKRFEFLGAILKLAYCLNRTRRHVIGKIGTIEAKRDALVLPLYYHYDLDPSFEQDYALKHVKHVEKVIKKTIELPFLPLSNFT, MGSDKIHHHHHHMKRVIINADDFGLSDGVNRAVIKAWQEGILTSASLMVGGDAFHEAVHLAKANPGLHVGLHLTLVQGRAVGEHGGFPSICDSKGAFSDDPVQTGMRYFFIRSFRKQLYREIEAQIVRFLQTGLPLSHVDGHLNIHMHPVVFDLLCGLMRKHGITTFRLCRENLRANLTLDRERRFGKMVDAFIFSKLAGRCRPILDHLGIGYAQEVKGLLNSGRMTEEYLLRVLDTLEDGTTELYFHPGCLPCAEITRRMPDYRHEEELAALMSPRVKGRLKELGIELGNYRGEVKTYV, MGSDKIHHHHHHMKSMWCIHDRIFLKKTREVFDVDIKAYKERVEKAVEYLKGQIDETPEIAIILGSGLSVIADEVEKEGTSKKIPYSEIPGFPISTAPGHKGELIFGKLFGKNVMLMNGRFHYYEGYSMKEVTFPIRVMQLLGVEILIVTNAAGGLNPDFEVGRPMIITDHINFMGDNPLIGPNVDEWGPRFPDMSEPYDKELIELAYNSARELGIPVYQGVYVAVTGPCFETPAELRMLRKFGADAVGMSTVPEVIVARHGQIRVLGISAITDRAVPEDLKPLTAEEVLEVAEKTGRKIAQIIFEVVRKL, MGSDKIHHHHHHMKSPQELRNKLFRYWRQPGLRLRQLLDQAAWPLVLSIGKPTAQVFSSQVAMVQKHVEAWREVSVGKVEWKRIGYRSGADLVSIPTQWCLRSPTEWITAMSNEEISAQYMSLEHLVEHLPAVYRRLIITRPSLWKNKRSEEVIQVAGLAQRLSPGCAQGLPLRLLSGYGVDTKFFERNELLLSKMLDVRYEGEASRQGLCDFLDAYDDTSHWVLLAPLEAGLLPFKRQLVTTSELGRASLPGTRLLIVENQKCLHLLRELPGTIAILGCGSDLAWLGSAQLHGKSIAYWGDVDTWGMRMLARARSRFNAVIPLLMTATVFDAHSDFTVPEPIRAQDTPPADLTPSETALFKRLVQCSRGRLEQEFISREVVWAALEEWIQRRRG
